Test results from article PMC7064779.

Molecular target: LecB-biotin (Pseudomonas aeruginosa lectin LecB, biotinylated) (Pseudomonas aeruginosa) (UniProt Q9HYN5)
Assay: pull-down; LecB-biotin applied basolaterally to polarized filter-grown MDCK cells; cells lysed; LecB-biotin-receptor complexes precipitated with streptavidin beads; β1-integrin probed by Western blot in precipitate and supernatant

With “β1-integrin (glycosylated, endogenous in MDCK cells) (receptor)” as the substance, how does the percent of total β1-integrin extracted read?
Its percent of total β1-integrin extracted is 75%.
